Target: T1, SHP2 binding to GST-PD1 (Homo sapiens, UniProt Q06124)
T1 construct: endogenous in cells; host or cells: SAP-knockdown Jurkat T cells (SHP2); GST-PD-1 tail made in BL21 E. coli
T1 sequence (Q06124 2-593 limits assumed): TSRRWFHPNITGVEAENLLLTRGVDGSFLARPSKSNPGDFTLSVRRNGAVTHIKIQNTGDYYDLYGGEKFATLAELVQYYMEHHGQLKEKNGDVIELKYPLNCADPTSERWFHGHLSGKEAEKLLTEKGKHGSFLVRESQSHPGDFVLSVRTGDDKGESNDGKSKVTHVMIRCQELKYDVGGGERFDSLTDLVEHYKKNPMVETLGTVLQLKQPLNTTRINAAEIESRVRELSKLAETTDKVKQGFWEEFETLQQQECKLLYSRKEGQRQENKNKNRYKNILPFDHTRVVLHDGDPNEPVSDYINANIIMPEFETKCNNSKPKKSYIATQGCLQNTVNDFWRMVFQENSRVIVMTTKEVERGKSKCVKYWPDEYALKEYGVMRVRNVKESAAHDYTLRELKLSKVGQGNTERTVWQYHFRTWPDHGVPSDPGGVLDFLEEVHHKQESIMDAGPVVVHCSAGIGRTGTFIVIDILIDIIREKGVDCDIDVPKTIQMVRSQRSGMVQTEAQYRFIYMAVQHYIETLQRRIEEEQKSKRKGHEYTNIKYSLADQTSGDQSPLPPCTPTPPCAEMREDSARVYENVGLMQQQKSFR
T1 sequence (Q15116 192-288 partner limits assumed): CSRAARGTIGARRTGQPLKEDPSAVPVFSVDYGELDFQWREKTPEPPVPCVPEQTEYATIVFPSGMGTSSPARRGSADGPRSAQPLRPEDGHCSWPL
Test: Affinity purification of SHP2 by GST-PD1 with increasing concentrations of recombinant SAP
Settings: increasing concentrations of recombinant SAP added to SAP KD Jurkat cell lysate
Procedure: FIG. 3. SAP is indirectly associated with PD-1. (ai) Pervanadate treated Jurkat T cells were transiently transfected with GFP-tagged PD-1 or GFP alone; Whole cell lysates (WCL) were immunoprecipitated with an anti-GFP antibody (IP: GFP), and samples were analyzed by immunoblotting. (aii) Densitometry values of data shown in ai. (b) Jurkat T cells were transfected with plasmids directing expression of the indicated fluorescent proteins and after 24 hours cells were stimulated with anti-CD3 antibodies and recombinant PDL2, followed by live-imaging. Bar, 10 μm. […] (di) Jurkat T cells were transfected with different versions of GFP-tagged PD-1, as indicated, followed by treatment with pervanadate; Whole-cell lysates (Input) were immunoprecipitated with an anti-GFP antibody (IP: GFP), and samples were analyzed by immunoblotting. […] (ei) 293T cells were transfected with plasmid directing expression of GFP-SAP or a control GFP plasmid, followed by treatment with pervanadate; Lysates were pulled-down with the GST-tagged PD-1 and samples were analyzed by immunoblotting. […] (gi) SHP2 KD and scrambled control Jurkat T cells were transfected with GFP-tagged PD-1, followed by treatment with pervanadate; Lysates were immunoprecipitated with an anti-GFP antibody (IP: GFP), and samples were analyzed by immunoblotting. […] Samples were analyzed by immunoblot. […]

interference with the affinity-purification of SHP2 by GST-PD1: did not interfere
B1: SAP: Recombinant human SAP (His tagged), signaling lymphocytic activation molecule-associated protein, purchased from Abcam (protein, UniProt O60880 1-128, looked up)
SH2 domain-containing protein …: MDAVAVYHGKISRETGEKLLLATGLDGSYLLRDSESVPGVYCLCVLYHGYIYTYRVSQTETGSWSAETAPGVHKRYFRKIKNLISAFQKPDQGIVIPLQYPVEKKSSARSTQGTTGIREDPDVCLKAP
modifications: His tag
